# From patent publication US20220125947A1 (published 2022)
# Molecular target: γδ T cell receptor on human γδ T cells (AG000003021) (human)
# Assay: flow cytometry, DRC binding at 37°C on human γδ T cells
# Description: Binding of antibodies to human γδ T cells or SKW cell lines expressing Vγ9/Vδ2, Vγ9/Vδ2 or Vγ5/Vδ2 was carried out by flow cytometry. Briefly, the cells were centrifuged at 300×g for 5 minutes and the pellet was resuspended in 34 ml fresh media (in RPMI+10% FBS). 50 μL of the cells were then plated (44K cells/well) into assay plates. Samples were incubated for one hour at 37° C. in tissue culture (TC) incubator followed by wash steps by adding 100 μl FACS staining buffer. Secondary detention antibodies (A647 conjugated anti-human IgG Fc specific antibody (2 μg/mL) along with AF488 anti mouse CD3, clone OKT3 at 1 ug/mL) were added at 50 μL/well to appropriate wells according to the plate map. After incubating for 60 minutes at 37° C. in the TC incubator, cells were again washed as described above. This is followed by resuspension in 20 μL/well running buffer containing 1:1000 dilution of Sytox blue dead cell stain and the plates were run on iQue Screener.
# Gating and data analysis: Human anti-human Vγ9 antibody (VG9B2 mAb at 10 nM) was used to mark the gating of positive population. All cells were first gated for singlets on SCS-A vs. SCS-H dot plot, live/dead followed by CD3 positive population, and this subset of CD3 positive population was gated for Vγ9 positive binding using positive control mAb. Cells were also assessed for cell binding of control mAbs by RL1 (A647) Geomeans from the live cell population. Advanced metrics were used and normalization metrics were chosen to calculate fold over background wells containing secondary antibody alone (designated as ‘background’ within ForeCyt settings).
row,Max. Activity,Binder
1,3030 fold over background,"VG9B463 (antibody, human IgG1, lambda, V domains shown, IgG1, lambda) VH: EVQLVESGGGLVKPGGSLRLSCSASGFTFSNYDMNWVRQAPGKGLEWVSSISSSSSYIYYADSVKGRFTISRDNAKNSLYLQMNSLRAEDTAVYHCARDVGVTTDYYYYGMDVWGQGTTVTVSS VL: QPVLTQSSSASGTPGQRVTISCSGSSSNIGSNTVNWYQQFPGTAPKLLIYTNTQRPSGVPDRFSGSKSGTLVSLAISGLQSEDEADYYCAAWDDSLNAWVFGGGTKLTVLG"
2,3000 fold over background,"VG9B469 (antibody, human IgG1, kappa, V domains shown, IgG1, kappa) VH: EVQLVESGGGLVKPGGSLRLSCAASGFTFSHYDMNWVRQAPGKGLEWVSSISSSSSYIFYADSVKGRFTISRDNAKNSLLLQMNSLRAEDTAVYHCARDRGVGDTSDYYSFGLDVWGQGTMVTVSS VL: DIVMTQSPGTLSLSPGERATLSCRASQNVSSTYLAWYQQKPGQAPRLLIYGACSRATGIPDRFSGSGSGTDFTLTISRLEPEDYAVYYCQQYGSSPPYTFGRGTKLEIKR"
3,3120 fold over background,"VG9B416 (antibody, human IgG1, kappa, IgG1, kappa) heavy: not shown light: EIVLTQSPGTLSLSPGDRATLSCRASQSVASSYLAWYQQKPGQSPRLLIYGASSRATGIPDRFSGSGSGTDFTLTISRLEPEDFAVYYCQQYGSSPPYTFGQGTKLEIKRTVAAPSVFIFPPSDEQLKSGTASVVCLLNNFYPREAKVQWKVDNALQSGNSQESVTEQDSKDSTYSLSSTLTLSKADYEKHKVYACEVTHQGLSSPVTKSFNRGEC"

# Second part, the binder before the results:
row,Binder,Max. Activity
1,"VG9B195 (antibody, human IgG1, lambda, V domains shown, IgG1, lambda) VH: EVQLVESGGGLVKPGGSLRLSCAASGFTFSPYTMNWVRQAPGKGLEWVSSISSSSSYMYYADSVKGRFTISRDNAKNSLYLQMNSLRAEDTAVYYCARDGDLVGPTYYFDYWGQGTLVTVSS VL: SYELMQPPSVSVSPGQTASITCSGDKLGDKYACWYQQKPGQSPVLVIYQHNKRPSGIPERFSGSNSGKTATLTISGTQAMDEADYYCQAWDSTTVVFGGGTKLTVLG",3260 fold over background
2,"VG9B140 (antibody, human IgG1, kappa, V domains shown, IgG1, kappa) VH: EVQLVESGGGLVKPGGSLRLSCAGSGFTFRSYDMNWVRQAPGKGLEWVSSISTSSGYIYYADSVKGRFTISRDNAKNSLSLQMNSLRAEDTAVFYCARDRGIAVAGDYYYGMDVWGQGTMVTVSS VL: not shown",3230 fold over background
3,"VG9B69 (antibody, human IgG1, kappa, V domains shown, IgG1, kappa) VH: EVQLVESGGGLVKPGGSLRLSCAASGFTFSSYDINWVRQAPGKGLEWVSSITSSSYYIYYADSVKGRFTISRDNAKNSLYLQMNSLRAEDTAVYYCARDLGVRGVDYYYYGLDVWGQGTMVTVSS VL: not shown",3110 fold over background
4,"VG9B104 (antibody, human IgG1, kappa, V domains shown, IgG1, kappa) VH: EVQLVESGGGLVKPGGSLRLSCAASGFTFSVYSMNWVRQAPGKGLEWVSSIGSSSSYIFYADSVKGRFTISRDNAKNSLYLQMNSLRAEDTAVYYCGRDHDYGGLDYWGQGTLVTVSS VL: EIVLTQSPGTLSLSPGERATLSCRASQSVSSSYLAWYQQKPGQAPRLLIYGPSNRATDIPDRFSGTGSGTDFTLTISRLEPEDFAVYYCQQYGRSPLTFGGGTKVEIKR",3050 fold over background
5,"VG9B198 (antibody, human IgG1, lambda, V domains shown, IgG1, lambda) VH: QVQLQESGPGLVKPSETLSLTCTVSGDSISSIYWSWIRQSAGKGLEWIGRIYTTDITNYNPSLKSRVTMSADTSKNQLSLKLTSVTAADTAVYYCAKNGYSYGGFNYWGQGTLVTVSS VL: QSVLTQPPSVSGAPGQRVTISCTGSSSNIGAGYDVHWYQRLPGTAPKLLIYGDSYRPSGVPDRFSGSKSGTSASLAITGLQAEDEADYYCQSYDSSLSVVVFGGGTKLTVLG",3040 fold over background
6,"VG9B121 (antibody, human IgG1, kappa, V domains shown, IgG1, kappa) VH: EVQLVESGGGLVKPGGSLRLSCVASGFTFSDYAMDWVRQAPGKGLDWISSISSTSNYIFYADSVKGRFTISRDNAKNSLYLQMNSLRVEDSAVYYCANSYNWNYGGAFDIWGQGTMVTVSS VL: DIQMTQSPGTLSSSPGERATLSCRASQSVSSSYFAWYQQKPGRAPRLLIYGASSRATGIPDRFSGSGSGTDFTLTISRLEPEDFAVYFCQQYGRSPLTFGGGTKVEIKR",3670 fold over background
7,"VG9B46 (antibody, human IgG1, kappa, V domains shown, IgG1, kappa) VH: EVQLVESGGGLVKPGGSLRLSCEASGFTFSINSMNWVRQAPGKGLEWVSSISSTSDYIFNADSVKGRFTISRDNAKNSLYLQMNSLRAEDTAVYYCVRDDVFGAFDIWGQGTMVTVSS VL: EIVLTQSPGTLSLSPGERATLSCRTSQSVSRSYLGWYQQKPGQPPRLLIFGSSSRATGIPDRFSGSGSGTDFTLTISRLEPEDFAVYYCQQYSRSPLTFGGGTKVDIKR",3210 fold over background
